According to publication PMC9456106, “PET Probes for Preclinical Imaging of GRPR-Positive Prostate Cancer: Comparative Preclinical Study of [^68Ga]Ga-NODAGA-AMBA and [^44Sc]Sc-NODAGA-AMBA” (International Journal of Molecular Sciences, 2022):

What was measured:
[1] = Octanol/water partition coefficient (logP); assay type: physicochemical; settings: 1-octanol/water, triplicates
Protocol: For the determination of LogP value and the in-vitro serum stability, the same protocol was used as was described earlier by our research group. Briefly, for the determination of the partition coefficient (logP), 10 µL of [^68Ga]Ga-NODAGA-AMBA or [^44Sc]Sc-NODAGA-AMBA solution (approximately 5 MBq) was mixed with 500 µL of 1-octanol and 490 µL of water in a test tube. To reach equilibrium state, the mixture was firmly stirred and then centrifuged (20.000 rpm, 5 min). One-hundred microliters of the samples were pipetted into vials from each layer, and the radioactivity of the fractions was determined with a calibrated gamma counter (Perkin-Elmer Packard Cobra, Waltham, MA, USA). The measurements were performed in triplicates for both labelled compounds.

[2] = Pharmacokinetics (blood clearance) in healthy control mice; assay type: in vivo; settings: healthy control CB17 SCID mice, i.v.
Protocol: (§1) For pharmacokinetic studies, healthy control CB17 SCID mice (n = 12) were injected intravenously with 10.8 ± 1.6 MBq of [^68Ga]Ga-NODAGA-AMBA or [^44Sc]Sc-NODAGA-AMBA under isoflurane anesthesia. Thereafter, approximately 30 μL blood samples were collected from the saphenous vein into a capillary tube at the following time points: 30, 60, 120, and 180 minutes. The volume of the blood was determined using a digital caliper. Blood samples were placed in a γ-counter and the radioactivity of each sample was measured. Results were expressed as a percentage of the injected activity per mL (% ID/mL). For the determination of in vivo serum stability of [^68Ga]Ga-NODAGA-AMBA and [^44Sc]Sc-NODAGA-AMBA, blood samples were taken from the mice at the previously mentioned time points (30, 60, 120, and 180 min). Firstly, the blood samples were centrifuged at 4°C, 10,000 rpm for 5 min. Thereafter, 50 μL samples were taken from the supernatant and mixed with ice-cold abs. ethanol (50 μL) and centrifuged again at 4°C, 10 000 rpm for 5 min. The supernatants were analyzed by analytical radio-HPLC. In all cases, the radio-HPLC chromatograms were compared to the original chromatograms of the radiotracers to find any metabolite forms.

PC-3 tumors = test: Ex-vivo biodistribution of PC-3 tumor-bearing mice; assay type: in vivo, CB17 SCID mice; settings: for accumulation in PC3 tumors, blocked: 15 mg/kg BBN blocking, 15 mg/kg
Protocol: For animal experiments, 12-week-old female CB17 SCID (n = 64) were used. For the induction of GRPR-expressing tumor model, mice were anesthetized with a dedicated small animal anesthesia device (Tec3 Isoflurane Vaporizer, Eickemeyer Veterinary Equipment, Sunbury-on-Thames, UK) applying 3% isoflurane (Forane, AbbVie), 0.4 L/min O2, and 1.4 L/min N2O, and 5 × 10^6 PC-3 tumor cells in 0.9% NaCl (100 µL) were injected subcutaneously into the left shoulder area of CB17 SCID mice. In-vivo and ex-vivo experiments were carried out 14 ± 1 days after subcutaneous injection of tumor cells at the tumor volume of approximately 86 mm^3.
(§2) Thirty, 60, 120, and 180 min after the intravenous injection of 11.3 ± 1.4 MBq [^68Ga]Ga-NODAGA-AMBA or [^44Sc]Sc-NODAGA-AMBA healthy control and PC-3 tumor-bearing mice were euthanized with 5% Forane, sacrificed, and tissue samples were taken from the selected organs. The weight and the radioactivities of both the tumors and normal tissues were measured with calibrated gamma counter, and the uptake was expressed as %ID/g tissue.
For blocking experiments, PC-3 tumor-bearing mice were injected intravenously with 15 mg/kg of BBN (Sigma-Aldrich) 30 min prior to the injection of 11.3 ± 1.4 MBq [^68Ga]Ga-NODAGA-AMBA or [^44Sc]Sc-NODAGA-AMBA and in-vivo and ex-vivo organ distribution studies were performed as described above.

[3] = Ex-vivo biodistribution in healthy control mice; parameters: species or system CB17 SCID mice; settings: i.v.; for accumulation in the adrenal glands / accumulation in the kidneys / accumulation in the pancreas / accumulation in the urine: 30-180 min, approx.; for radiotracer uptake in blood, liver, spleen, gastrointestinal tract and thoracic organs: each investigated time point
Protocol: as §2

[4] = In-vitro stability in mouse plasma, Na2EDTA and oxalic acid (radio-HPLC); assay type: in vitro ADME; settings: mixed with mouse plasma, oxalic acid
Protocol: For in-vitro stability measurements, the labelled compounds were mixed with mouse plasma, Na2EDTA, and oxalic acid. Samples were injected at different time points to the HPLC with and without a column.
After 15 and 90 min incubation time, a 50 µL sample was taken and 50 µL abs. EtOH was added to the aliquots. Then, the samples were centrifuged (20.000 rpm, 5 min), and the supernatant was removed and diluted with the eluent of HPLC. This was followed by the performance of the analytical measurements.

[5] = In-vivo stability by analytical radio-HPLC of blood samples; parameters: species or system CB17 SCID mice; settings: healthy mice, samples at 30, 60, 120, 180 min
Protocol: as §1

SMILES	octanol/water partition coefficient (logP) [1]	half-life in the blood [2]	accumulation in PC3 tumors, blocked (PC-3 tumors; 60 min)	accumulation in PC3 tumors (PC-3 tumors; 60 min after i.v. injection)	accumulation in PC3 tumors, blocked (PC-3 tumors; 120 min)	accumulation in PC3 tumors (PC-3 tumors; 120 min after i.v. injection)	accumulation in the adrenal glands [3]	accumulation in the kidneys [3]	accumulation in the pancreas [3]	accumulation in the urine [3]	radiotracer uptake in blood, liver, spleen, gastrointestinal tract and thoracic organs [3]	RCP, in-vitro stability ([4]; 15 min)	RCP, in-vitro stability ([4]; 90 min)	in-vivo stability [5]
CSCC[C@H](NC(=O)[C@H](CC(C)C)NC(=O)[C@H](Cc1c[nH]cn1)NC(=O)CNC(=O)[C@@H](NC(=O)[C@H](C)NC(=O)[C@H](Cc1c[nH]c2ccccc12)NC(=O)[C@H](CCC(N)=O)NC(=O)c1ccc(NC(=O)CNC(=O)CCC(C(=O)O)N2CCN(CC(=O)O)CCN(CC(=O)O)CC2)cc1)C(C)C)C(N)=O (stereo partly shown) [[^44Sc]Sc-NODAGA-AMBA] [metal not drawn]	−2.81 ± 0.14	less than 30 minutes	0.79 ± 0.16 %ID/g	4.56 ± 0.45 %ID/g	0.69 ± 0.17 %ID/g	4.14 ± 0.47 %ID/g	0.5–3 %ID/g	2–8 %ID/g	1–4 %ID/g	250–450 %ID/g	Low radiotracer uptake	over 98%	over 98%	remained stable
CSCC[C@H](NC(=O)[C@H](CC(C)C)NC(=O)[C@H](Cc1c[nH]cn1)NC(=O)CNC(=O)[C@@H](NC(=O)[C@H](C)NC(=O)[C@H](Cc1c[nH]c2ccccc12)NC(=O)[C@H](CCC(N)=O)NC(=O)c1ccc(NC(=O)CNC(=O)CCC(C(=O)O)N2CCN(CC(=O)O)CCN(CC(=O)O)CC2)cc1)C(C)C)C(N)=O (stereo partly shown) [[^68Ga]Ga-NODAGA-AMBA] [metal not drawn]	−2.75 ± 0.18	less than 30 minutes	0.60 ± 0.22 %ID/g	3.78 ± 0.93 %ID/g	0.48 ± 0.14 %ID/g	3.29 ± 1.20 %ID/g	0.5–3 %ID/g	2–8 %ID/g	1–4 %ID/g	250–450 %ID/g	Low radiotracer uptake	approximately 92%	approximately 85%	remained stable
